Laboratory results published in US20090226415A1, “MODIFIED TRIDEGINS, PRODUCTION AND USE THEREOF AS TRANSGLUTAMINASE INHIBITORS” (priority 2001, published 2009).

B1: recombinant tridegin polypeptide expressed in the yeast Pichia pastoris: tridegin polypeptide encoded by SEQ ID No. 90, secreted from Pichia pastoris; main product lacks the 11 C-terminal residues (protein)
chain: MRFPSIFTAVLFAASSALAAPVNTTTEDETAQIPAEAVIGYSDLEGDFDVAVLPFSNSTNNGLLFINTTIASIAAKEEGVSLEKRKLLPCKEWHQGIPNPRCWCGADLECAQDQYCAFIPQCRPRSELIKPMDDIYQRPVEFPNLPLKPREESLEHHHHHH
modifications: main product lacks 11 C-terminal residues
notes: main product lacks the 11 C-terminal residues
B2: H10A: modified tridegin, XnY mutation of SEQ ID No. 1, expressed in Escherichia coli (protein)
chain: MKLLPCKEWAQGIPNPRCWCGADLECAQDQYCAFIPQCRPRSELIKPMDDIYQRPVEFPNLPLKPREE
B3: K07A: modified tridegin, XnY mutation of SEQ ID No. 1, expressed in Escherichia coli (protein)
chain: MKLLPCAEWHQGIPNPRCWCGADLECAQDQYCAFIPQCRPRSELIKPMDDIYQRPVEFPNLPLKPREE
B4: G12A: modified tridegin, XnY mutation of SEQ ID No. 1, expressed in Escherichia coli (protein)
chain: MKLLPCKEWHQAIPNPRCWCGADLECAQDQYCAFIPQCRPRSELIKPMDDIYQRPVEFPNLPLKPREE
B5: P65A: modified tridegin, XnY mutation of SEQ ID No. 1, expressed in Escherichia coli (protein)
chain: MKLLPCKEWHQGIPNPRCWCGADLECAQDQYCAFIPQCRPRSELIKPMDDIYQRPVEFPNLPLKAREE
B6: D50A, P55L: spontaneously arising double mutant of tridegin SEQ ID No. 1, expressed in Escherichia coli (protein)
chain: MKLLPCKEWHQGIPNPRCWCGADLECAQDQYCAFIPQCRPRSELIKPMDAIYQRLVEFPNLPLKPREE
B7: L24A: modified tridegin, XnY mutation of SEQ ID No. 1, expressed in Escherichia coli (protein)
chain: MKLLPCKEWHQGIPNPRCWCGADAECAQDQYCAFIPQCRPRSELIKPMDDIYQRPVEFPNLPLKPREE
B8: R39A: modified tridegin, XnY mutation of SEQ ID No. 1, expressed in Escherichia coli (protein)
chain: MKLLPCKEWHQGIPNPRCWCGADLECAQDQYCAFIPQCAPRSELIKPMDDIYQRPVEFPNLPLKPREE
B9: Y31A: modified tridegin, XnY mutation of SEQ ID No. 1, expressed in Escherichia coli (protein)
chain: MKLLPCKEWHQGIPNPRCWCGADLECAQDQACAFIPQCRPRSELIKPMDDIYQRPVEFPNLPLKPREE
B10: F34A: modified tridegin, XnY mutation of SEQ ID No. 1, expressed in Escherichia coli (protein)
chain: MKLLPCKEWHQGIPNPRCWCGADLECAQDQYCAAIPQCRPRSELIKPMDDIYQRPVEFPNLPLKPREE
B11: D50A: modified tridegin, XnY mutation of SEQ ID No. 1, expressed in Escherichia coli (protein)
chain: MKLLPCKEWHQGIPNPRCWCGADLECAQDQYCAFIPQCRPRSELIKPMDAIYQRPVEFPNLPLKPREE
B12: N60A: modified tridegin, XnY mutation of SEQ ID No. 1, expressed in Escherichia coli (protein)
chain: MKLLPCKEWHQGIPNPRCWCGADLECAQDQYCAFIPQCRPRSELIKPMDDIYQRPVEFPALPLKPREE
B13: F58A: modified tridegin, XnY mutation of SEQ ID No. 1, expressed in Escherichia coli (protein)
chain: MKLLPCKEWHQGIPNPRCWCGADLECAQDQYCAFIPQCRPRSELIKPMDDIYQRPVEAPNLPLKPREE
B14: K02A: modified tridegin, XnY mutation of SEQ ID No. 1, expressed in Escherichia coli (protein)
chain: MALLPCKEWHQGIPNPRCWCGADLECAQDQYCAFIPQCRPRSELIKPMDDIYQRPVEFPNLPLKPREE
B15: I45A: modified tridegin, XnY mutation of SEQ ID No. 1, expressed in Escherichia coli (protein)
chain: MKLLPCKEWHQGIPNPRCWCGADLECAQDQYCAFIPQCRPRSELAKPMDDIYQRPVEFPNLPLKPREE
B16: M48A: modified tridegin, XnY mutation of SEQ ID No. 1, expressed in Escherichia coli (protein)
chain: MKLLPCKEWHQGIPNPRCWCGADLECAQDQYCAFIPQCRPRSELIKPADDIYQRPVEFPNLPLKPREE
B17: C06A: tridegin modified by replacement of a cysteine residue, expressed in Escherichia coli (protein)
chain: MKLLPAKEWHQGIPNPRCWCGADLECAQDQYCAFIPQCRPRSELIKPMDDIYQRPVEFPNLPLKPREE
B18: C18A: tridegin modified by replacement of a cysteine residue, expressed in Escherichia coli (protein)
chain: MKLLPCKEWHQGIPNPRAWCGADLECAQDQYCAFIPQCRPRSELIKPMDDIYQRPVEFPNLPLKPREE
B19: C20A: tridegin modified by replacement of a cysteine residue, expressed in Escherichia coli (protein)
chain: MKLLPCKEWHQGIPNPRCWAGADLECAQDQYCAFIPQCRPRSELIKPMDDIYQRPVEFPNLPLKPREE

Each molecule was assayed against T1, factor XIIIa (Homo sapiens, UniProt P00488) (assay: biochemical). Details: not given.
T1 sequence (P00488 39-732 limits assumed): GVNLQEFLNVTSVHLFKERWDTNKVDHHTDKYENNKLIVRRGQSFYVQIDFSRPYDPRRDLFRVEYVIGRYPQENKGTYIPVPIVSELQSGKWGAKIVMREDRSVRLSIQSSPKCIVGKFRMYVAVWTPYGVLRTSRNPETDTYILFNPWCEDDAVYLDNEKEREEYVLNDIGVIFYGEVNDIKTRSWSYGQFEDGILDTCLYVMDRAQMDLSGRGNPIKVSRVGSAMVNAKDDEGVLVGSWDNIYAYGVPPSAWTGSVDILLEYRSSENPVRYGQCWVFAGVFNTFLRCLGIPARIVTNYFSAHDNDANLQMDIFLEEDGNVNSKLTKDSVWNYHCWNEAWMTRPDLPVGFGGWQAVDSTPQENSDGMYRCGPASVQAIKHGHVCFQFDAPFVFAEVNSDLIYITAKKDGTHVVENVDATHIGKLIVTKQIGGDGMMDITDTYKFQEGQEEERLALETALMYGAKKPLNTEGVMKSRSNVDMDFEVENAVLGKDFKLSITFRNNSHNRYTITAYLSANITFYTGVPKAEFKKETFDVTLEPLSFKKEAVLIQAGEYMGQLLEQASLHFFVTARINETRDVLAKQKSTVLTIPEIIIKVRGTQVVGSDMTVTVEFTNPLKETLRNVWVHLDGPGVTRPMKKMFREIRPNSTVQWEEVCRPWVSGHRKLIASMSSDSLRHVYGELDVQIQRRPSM
Assay type: biochemical
Procedure: The assay is based on factor XIII being activated to form factor XIIIa by thrombin which is present in the reagents. Factor XIIIa links a specific peptide substrate to glycine ethyl ester with ammonium ions being released. The latter are determined in an enzyme reaction which proceeds in parallel. The extinction at 340 nm was used to measure the decrease in NADH. For the measurement, peptides were present in 50% acetonitrile in a stock concentration of 5 mM. The NADH and detection reagents which were supplied by the manufacturer were dissolved in 3 ml of water, with the activator reagent subsequently being dissolved in 3 ml of NADH reagent. For use, the activator and detection reagents were mixed in a ratio of 1:1. In order to carry out the measurement in microtiter plate format, 100 μl of sample (inhibitor or control buffer), 25 μl of factor XIII (10 U/ml) and 150 μl of working reagent were mixed. The measurement was carried out continuously for 20 min at 340 nm, and at 37° C., in a microtiter plate photometer. For the evaluation, the differences in the values measured after 16 and 20 min were compared.
The relative inhibitory effect (%) was determined at a final variant concentration of 5.45 μM. The inhibitory effect of the recombinant tridegin polypeptide was normalized to 100% (at 5.45 μM).
The above-described Berichrom® assay was used to determine the relative inhibitory effect (%) at a final concentration of the peptides of 7.27 μM. The inhibitory effect of the recombinant tridegin polypeptide, at a final concentration of 7.27 μM, was normalized to 100%.
The relative inhibitory effect (%) was determined at a final variant concentration of 5.45 μM. The inhibitory effect of the recombinant wild-type tridegin poly-peptide (at 5.45 μM) was normalized to 100%. The oligonucleotides which were used to produce the abovementioned variants are also specified in the table.

In the case of B1, the “inhibitory activity compared with wild-type tridegin polypeptide expressed in Escherichia coli” value is reported as “even more effective”.

Same assay, conditions: Table 2; final variant concentration 5.45 μM; recombinant tridegin polypeptide normalized to 100%

First: B2
Second: B3
The “Relative inhibitory effect (%)” value of the first is lower: 87% for the first, 90% for the second.

Compared with B4, B5 is lower in “Relative inhibitory effect (%)” value: 97% for the first, 51% for the second.

Compared with B6, B7 is higher in “Relative inhibitory effect (%)” value: 84% for the first, 92% for the second.

Compared with B8, B9 is higher in “Relative inhibitory effect (%)” value: 49% for the first, 69% for the second.

First: B10
Second: B11
The “Relative inhibitory effect (%)” value of the first is higher: 96% for the first, 53% for the second.

Compared with B12, B13 is lower in “Relative inhibitory effect (%)” value: 68% for the first, 60% for the second.

Compared with B14, B15 is higher in “Relative inhibitory effect (%)” value: 113% for the first, 115% for the second.

B16 was tested, and the “Relative inhibitory effect (%)” value was 91%.

Same assay, conditions: Table 3; final peptide concentration 7.27 μM; recombinant tridegin polypeptide at 7.27 μM normalized to 100%

First: Ac-IKPMDDIYQRPVEFPNLPLK-NH2 [SEQ ID No. 24]
Second: Ac-DDIYQRPVEFPNLPLKPREE-NH2 [SEQ ID No. 26]
The relative inhibitory effect (% of recombinant tridegin) at 7.27 µM of the first is higher: 43.5% for the first, 35.6% for the second.

For “Ac-PMDDIYQRPVEFPNLPLKPR-NH2 [SEQ ID No. 25]”, the relative inhibitory effect (% of recombinant tridegin) at 7.27 µM was 42.1%.

Same assay, conditions: Table 4, Cys variants; final variant concentration 5.45 μM; wild-type tridegin polypeptide normalized to 100%

Going from B17 to B18, the “Relative inhibitory effect (%)” value rises from 72% to 93%.

For B19, the “Relative inhibitory effect (%)” value was 63%.
